Assay results from US8809529B2, “Imidazo[1,2-α]pyrazine derivatives” (Promega Corporation, priority 2010, dated 2014).
Positions count from the first letter of the chain named. Names may count otherwise.

B1: L27V: 9B8 opt+K33N variant with L27V, T39T, K43R, Y68D (protein)
chain: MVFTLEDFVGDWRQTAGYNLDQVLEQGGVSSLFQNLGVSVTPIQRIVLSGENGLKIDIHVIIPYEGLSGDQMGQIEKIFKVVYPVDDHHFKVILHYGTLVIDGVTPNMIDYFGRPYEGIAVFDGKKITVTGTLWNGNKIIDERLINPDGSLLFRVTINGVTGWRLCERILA
B2: 9B8: IV variant with Q18L, F68Y, L72Q, M75K; in Tables 12, 22, 23, 26, 27 “9B8” stands for 9B8 opt (protein)
chain: B1 chain with V29L, N35K, R45K, D70Y

What was measured:
[1] = assay type: biochemical, E. coli
Description: The signal stability of 15C1 with PBI-3945 and 9B8 with PBI-3889 was measured and compared to IV. E. coli containing plasmid DNA encoding 15C1, 9B8, or IV were grown and induced as described previously in 8-well replicates. Cells were lysed using a lysis buffer containing of 300 mM HEPES pH 8.0, 0.3× Passive Lysis Buffer (“PLB”; Promega Corp. Cat. No. E194A), 0.3 mg/mL lysozyme, and 0.003 U/μL RQ1 DNase. Lysates were diluted 1:1000 in lysis buffer and measured for luminescence using a TECAN® INFINITE® F500 luminometer. Measurements were taken immediately after the addition to 10 μL of diluted lysate sample of 50 μL of “Glo” 0.5% TERGITOL assay buffer (“0.5% TERGITOL”), which contained 150 mM KCl, 1 mM CDTA, 10 mM DTT, 100 mM thiourea, 0.5% TERGITOL® NP-9 (v/v), and 20 μM of either novel coelenterazines PBI-3945 or PBI 3889.
The signal stability of the variants was determined by re-reading the plate every 30 seconds for a length of time after the addition of the assay buffer to the sample. The signal half-life was determined from these measurements using methods known in the art. The average signal half-life was compared between the variants and IV. […] At t=10 min, luminescence for 15C1 with PBI-3945 and 9B8 with PBI-3889 were equivalent.
E. coli lysates containing the variants were prepared and analyzed as described previously except the assay buffer contained 0.25% TERGITOL® NP-9 (v/v), 100 mM MES pH 6.0, 1 mM CDTA, 150 mM KCl, 35 mM thiourea, 2 mM DTT, and 20 μM PBI-3939.

[2] = Brightness and relative specificity of 9B8 and 9B8 opt+K33N variants in E. coli lysates; assay type: biochemical; settings: for Fold over coelenterazine / Fold over 9B8: bacterial lysates; for Fold over coelenterazine: PBI-3939 luminescence divided by native coelenterazine luminescence; for Fold over 9B8: luminescence normalized to 9B8 opt
Description: Additional variants with improved relative specificity to novel PBI-3939 were generated as described previously by saturating amino acid positions 18, 68, 72, 75, and 90 in variant 9B8. […] Relative specificity was determined from the ratio of the luminescence of the variant with PBI-3939 to the luminescence of the variant with native coelenterazine, normalized to the ratio of corresponding luminescence of 9B8. Table 8 lists 9B8 variants (“Variant”) with at least 1.1× fold-increase in relative specificity for PBI-3939. […] 9B8 variants with amino acid substitutions K, D, F, G, Y, W, and H at position 18 had the highest fold improvement in relative specificity.
A new OgLuc library was created using 9B8opt+K33N as a starting template. The random library was created using DIVERSIFY® PCR Random Mutagenesis Kit (ClonTech; Catalog #630703). Condition 5 (as listed in the user manual) was used to generate additional variants, and the average mutation rate was calculated to be 2.6 mutations per gene by compiling sequence data from 83 randomly selected clones. This PCR library was cloned into the pF4Ag-based, non-fusion vector background described previously and the sandwich background, i.e., Id-OgLuc-HT7 (described in Example 45). Variants in the pF4Ag-base non-fusion vector background are designated with (NF). Variants in the sandwich vector background are designated with (F). In order to clone the PCR product into both vectors, an amino acid, i.e., a glycine, was appended to the variant sequence in pF4Ag, generating a new position 170 in the OgLuc variant (“170G”). The 170G is present in the sandwich construct, but in this case is considered part of the linker between OgLuc and HT7. For each library, 4,400 E. coli clones were assayed as described previously with the following exceptions. […] The assay buffer contained 100 mM MES pH 6.0 instead of HEPES, and 35 mM thiourea. The assay volumes were as follows: 10 μL cells, 40 μL lysis buffer, and 50 μL assay buffer.
(§1) Based on the above data, further combination variants were designed and generated (see Table 10) in the context of the pF4Ag-based non-fusion vector background without the 170G. The variants were analyzed in E. coli, HEK293 and NIH3T3 cells as described above and compared to 9B8 opt+K33N. The variants were also examined for luminescence with native coelenterazine.
E. coli lysates containing the variants were prepared and analyzed as described previously. Luminescence generated from the lysates was measured using the novel PBI-3939 and native coelenterazine as substrates. The luminescence of the variants was normalized to the luminescence generated by 9B8 opt (Table 12). The relative specificity of the variants for PBI-3939 and native coelenterazine was calculated by dividing the luminescence of the variants using PBI-3939 as a substrate with the luminescence of the variants using native coelenterazine as a substrate (Table 12).

[3] = Luminescence of OgLuc variants expressed in HEK293 cells; assay type: cell-based, human; settings: for Increase in Luminescence: HEK293: normalized to 9B8 opt
Description: The PCR library in the pF4Ag-based non-fusion background was screened for additional variants with increased luminescence compared to 9B8 opt+K33N+170G (SEQ ID NOs: 68 and 69). Selected variants were then assayed in HEK293 and NIH3T3 cells. For each cell type, 15,000 cells were plated and grown overnight at 37° C. The next day, the cells were transfected as described in Example 25 with 10 ng pGL4.13 (Promega Corp.) as a transfection control and 100 ng of the OgLuc test DNA. The media was removed, and the cells were lysed with 100 μL of lysis buffer as described in Example 25 except the lysis buffer contained 100 mM MES pH 6.0 instead of HEPES, and luminescence measured using a GLOMAX® Luminometer.
as §1
The brightness of the variants expressed in HEK293 and NIH3T3 cells was measured as described previously. The luminescence of the variants was normalized to the luminescence generated by 9B8 opt (Table 27).
The variants 9B8 opt+K33N+T39T+K43R+Y68D (“V2”; SEQ ID NOs: 92 and 93), 9B8 opt+K33N+L27V+K43R+Y68D (SEQ ID NOs: 339 and 340), 9B8 opt+K33N+L27V+T39T+K43R+S66N (SEQ ID NOs: 341 and 342), and 9B8 opt+K33N+L27V+T39T+K43R+Y68D (“L27V”; SEQ ID NOs: 88 and 89) were subcloned into the Id-OgLuc-HT7 sandwich background as described above and assayed in HEK293 and NIH3T3 cells as described above. The luminescence generated by the sandwiched variants were compared to the luminescence generated by the […] sandwich (SEQ ID NOs: 59 and 60) (Table 38). The L27V sandwich (SEQ ID NOs: 90 and 91) and V2 sandwich (SEQ ID NOs: 94 and 95) had at least 1.3× fold-increase in luminescence in HEK293 and NIH3T3 cells.
The sandwich and non-sandwich versions of the variants V2, 9B8 opt+K33N+L27V+K43R+Y68D, 9B8 opt+K33N+L27V+T39T+K43R+S66N, and L27V were assayed in HEK293 and NIH3T3 cells as described in Example 37. The luminescence generated by the non-sandwiched variants was compared to the luminescence generated by the sandwiched variants (Table 39).

[4] = relative specificity for PBI-3939

Row | Molecule | signal half life [1] [h] | Fold over coelenterazine [2] | Fold over 9B8 [2] | Fold over 9B8 opt + K33N: E. coli ([2]; luminescence, PBI-3939) | Fold over Native Coelenterazine: E. coli [2, 4] | Fold-Decrease in Luminescence in the Presence of Sandwich Background: HEK 293 [3] | Fold over 9B8 opt + K33N: HEK293 ([3]; luminescence, PBI-3939) | Increase in Luminescence: HEK293 [3] | Fold over Native Coelenterazine: HEK293 [3, 4] | signal half-life [1]
1 | B1 | 1.9 | 110 | 1.8 | 0.9 | 85.2 | 6 | 0.8 | 1.6 | 97 | –
2 | B2 | 1.23 | 7 | 1.0 | – | – | – | – | 1.0 | – | at least 30 min
